B1: CCL18 (ligand)
chain: AQVGTNKELCCLVYTSWQIPQKFIVDYSETSPQCPKPGVILLTKRGRQICADPNKKWVQKYISDLKLNA
B2: CCL14 (ligand)
chain: TKTESSSRGPYHPSECCFTYTTYKIPRQRIMDYYETNSQCSKPGIVFITKRGHSVCTNPSDKWVQDYIKDMKEN
B3: CCL3L1 (ligand)
chain: APLAADTPTACCFSYTSRQIPQNFIADYFETSSQCSKPSVIFLTKRGRQVCADPSEEWVQKYVSDLELSA
B4: CCL8 (human chemokine panel) (ligand)
chain: QPDSVSIPITCCFNVINRKIPIQRLESYTRITNIQCPKEAVIFKTKRGKEVCADPKERWVRDSMKHLDQIFQNLKP
B7: CCL3 (ligand)
chain: SLAADTPTACCFSYTSRQIPQNFIADYFETSSQCSKPGVIFLTKRSRQVCADPSEEWVQKYVSDLELSA

Columns and labels:
[1] = molecular target: P672(1_44)-EVA1(29_94) hybrid evasin (Rhipicephalus pulchellus | …, UniProt L7MC74;P0C8E7, K92N); experiment: BLI
[2] = molecular target: evasin 1 (EVA1_RHISA), C-terminally tagged (Rhipicephalus sanguineus, UniProt P0C8E7 21-114, K92N); experiment: BLI
[3] = molecular target: other, more extended hybrid molecules (P672_EVA1 hybrids); experiment: BLI; P672(1_66):EVA1(47_94)
[4] = molecular target: other, more extended hybrid molecules (P672_EVA1 hybrids); experiment: BLI; P672(1_92):EVA1(74_94)
[5] = molecular target: B4; experiment: BLI
CCL23 = molecular target: T1, CCL23 (human, UniProt P55773 22-120); experiment: BLI
T1 chain: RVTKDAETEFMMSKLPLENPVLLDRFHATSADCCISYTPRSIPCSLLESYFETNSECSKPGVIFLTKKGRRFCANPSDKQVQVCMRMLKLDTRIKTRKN

CCL3L1 = molecular target: B3; experiment: BLI
CCL18 = molecular target: B1; experiment: BLI
CCL3 = molecular target: B7; experiment: BLI
CCL11 = CCL11 (human, UniProt P51671 24-97); experiment: BLI
Chain of CCL11 (P51671 24-97): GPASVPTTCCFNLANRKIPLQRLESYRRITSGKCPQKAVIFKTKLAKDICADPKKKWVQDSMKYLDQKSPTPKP

CCL16 = molecular target: T2, CCL16 (human, UniProt O15467 24-120); experiment: BLI
T2 chain: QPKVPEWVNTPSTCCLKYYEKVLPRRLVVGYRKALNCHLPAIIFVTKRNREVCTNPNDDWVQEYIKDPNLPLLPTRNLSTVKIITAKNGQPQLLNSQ

CCL7 = CCL7 (human, UniProt P80098 24-99); experiment: BLI
Chain of CCL7 (P80098 24-99): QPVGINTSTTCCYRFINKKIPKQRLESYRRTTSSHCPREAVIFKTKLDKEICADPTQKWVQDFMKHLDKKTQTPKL

CCL13 = CCL13 (human, UniProt Q99616 17-98); experiment: BLI
Chain of CCL13 (Q99616 17-98): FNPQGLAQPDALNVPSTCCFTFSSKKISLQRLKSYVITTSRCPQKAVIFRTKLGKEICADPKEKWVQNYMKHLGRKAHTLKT

CCL2 = CCL2 (human, UniProt P13500 24-99); experiment: BLI
CCL1 = molecular target: T3, CCL1 (human, UniProt P22362 24-96); experiment: BLI
T3 chain: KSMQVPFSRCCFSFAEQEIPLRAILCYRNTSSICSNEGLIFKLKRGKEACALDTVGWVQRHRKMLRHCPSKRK

CCL14 = molecular target: B2; experiment: BLI
CCL15 = molecular target: T4, CCL15 (human, UniProt Q16663 22-113); experiment: BLI
T4 chain: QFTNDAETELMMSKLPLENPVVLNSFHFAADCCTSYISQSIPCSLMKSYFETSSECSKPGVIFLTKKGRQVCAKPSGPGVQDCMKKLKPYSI

In the case of B1, the Kd [1] is reported as 6.45 nM, the Kd [2] is reported as 2.02 nM and the Kd [3] is reported as 3.69 nM. The Kd [4] was 9.75 nM.

In the case of B2, the Kd [2] is reported as 108 nM.

With B3 the Kd [2] was 22.4 nM.

For B4, the Kd [1] was 216 nM, the Kd [3] was 277 nM and the Kd [4] was 397 nM.

B5: CCL4L1 (ligand)
chain: APMGSDPPTACCFSYTARKLPRNFVVDYYETSSLCSQPAVVFQTKRGKQVCADPSESWVQEYVYDLELN
B5 showed a Kd [2] of 77.9 nM.

B6: CCL4 (ligand)
chain: APMGSDPPTACCFSYTARKLPRNFVVDYYETSSLCSQPAVVFQTKRSKQVCADPSESWVQEYVYDLELN
With B6 the Kd [2] was 233 nM.

With B7 the Kd [2] was 7.3 nM.

B8: C-terminally tagged P672 (P672_RHIPU), glycosylated (natural protein)
chain: ETGVCEVSEQEGVGEDNATEDEDYEDFFKPVTCYFANSTVGPLRPPNCTVVCTNNTAWWNDTKSDGGHCYSEYRPEKRTHSREIYNCTIGVCGNGTCIANHTYADCW
modifications: glycosylated
B8 was tested, and the Kd [5] was 16.4 nM, the Kd (CCL23) was 9.7 nM and the Kd (CCL3L1) was 5.7 nM. For the same binder, the Kd (CCL18) was 0.9 nM and the Kd (CCL3) was 13 nM.

B9: N-terminally tagged P672 (P672_RHIPU), glycosylated (natural protein)
chain: VCEVSEQEGVGEDNATEDEDYEDFFKPVTCYFANSTVGPLRPPNCTVVCTNNTAWWNDTKSDGGHCYSEYRPEKRTHSREIYNCTIGVCGNGTCIANHTYADCW
modifications: N-glycosylated (six N-glycosylated residues identified by mass spectrometry, Asn-34 among them; marked in Figure 2A)
B9 showed a Kd (CCL11) of 2.29 nM, a Kd (CCL16) of 9.6 nM and a Kd [5] of 8.51 nM. For the same binder, the Kd (CCL23) was 4.56 nM, the Kd (CCL3L1) was 1.63 nM and the Kd (CCL18) was 1.62 nM. The Kd (CCL7) was 18.6 nM, the Kd (CCL13) was 7.6 nM and the Kd (CCL2) was 21 nM. The Kd (CCL1) was 11 nM, the Kd (CCL3) was 0.954 nM and the Kd (CCL14) was 5.5 nM. For the same binder, the Kd (CCL15) was 31.5 nM.

Source: publication PMC5912465 (2018)
